In the DeepSol protein solubility set:

Test: soluble on expression in E. coli; label from the status in PepcDB or PDB records

Soluble on expression in E. coli, soluble:
MDNNIDFIVTWVNGGDPDWLKKKNKYLPVNESNENMNSESRYRDFDIFKFWFRAVEKFAPWVHKIYLITDNQVPDWLDTRNSKLTVIDHRDIMDADWLPTFNSNAIELNAYKIKNLSEKFVLFNDDTILNSYVDKVDFFDENYPKDIYVESPIMATKGSVDHIMVNNVEIINEFFEKKNFYKKNLTKVFNPKIGIKLLRTLALLPSSKFAGFWNSHLPISYNKTTFETVWSNCEGKLVATSKNKFRTAYDVSHWLMRYWQLASGNYHLQNNIGKVYDLSSQNIDEVVTQLQRSHSKIICLNDNDELDDYEGVKGKLVTTLNEKFSEKSKFELLEHHHHHH
MGGNMEDVKMKCGLEIHVQIDTKSKLFCNCSTNYLDAEPNTNVCPVCLGLPGAKPLPPNKKAVEVAIMVAKMLGCKIVVDEDIYFQRKHYDYPDLPSGYQRTSTPIGVDGEFMGIGIHEVHLEEDPGQYNPSFGIVDYNRSGTPLIEIVTKPDIKSPEEAREFLKQLMTLFRYLGCLRGEGTMRADVNISIEYMGVQGNRVEVKNVNSIKGVYKVLKYELIRQKNIIKRGGEVKRETRAFLESQMITKAMRSKETAEDYRYIPDPDIQPIVISEKWVKEIEEKMPETPLAKKKRFVEEYGIDEEDAKVLVSDLDMAEMFEEVVKSLGVNKENVDLAVTWIRNELRRSLQYHKVDLYESGVKAEHIVELIKLIKEGVISQKIAKEIVDLLVINRGKKMPKELVEELGLTVIRDEDALVKAVEEAIKNNPKAVEDYLNGKKEALNFLMGQVMRLTRGRADPKRVIELLKERLDK
MGHHHHHHSHRLSPRDEYKPLDLSDSTLSYTETEATNSLITAPGEFSDASMSPDATKPSHWCSVAYWEHRTRVGRLYAVYDQAVSIFYDLPQGSGFCLGQLNLEQRSESVRRTRSKIGFGILLSKEPDGVWAYNRGEHPIFVNSPTLDAPGGRALVVRKVPPGYSIKVFDFERSGLQHAPEPDAADGPYDPNSVRISFAKGWGPCYSRQFITSCPCWLEILLNNPR
SSWWTHVEMGPPDPILGVTEAFKRDTNSKKMNLGVGAYRDDNGKPYVLPSVRKAEAQIAAKNLDKEYLPIGGLAEFCKASAELALGENNEVLKSGRFVTVQTISGTGALRVGASFLQRFFKFSRDVFLPKPSWGNHTPIFRDAGMQLQGYRYYDPKTCGFDFSGALEDISKIPEQSVLLLHACAHNPTGVDPRPEQWKEIASVVKKKNLFAFFDMAYQGFASGDGDKDAWAVRHFIEQGINVCLCQSYAKNMGLYGERVGAFTVVCKDAEEAKRVESQLKILIRPLYSNPPLNGARIAATILTSPDLRKQWLQEVKGMADRIISMRTQLVSNLKKEGSSHNWQHITDQIGMFCFTGLKPEQVERLTKEFSVYMTKDGRISVAGVTSGNVGYLAHAIHQVTK
MAFEFKLPDIGEGIHEGEIVKWFVKPGDEVNEDDVLCEVQNDKAVVEIPSPVKGKVLEILVPEGTVATVGQTLITLDAPGYENMTFKGQEQEEAKKEEKTETVSKEEKVDAVAPNAPAAEAEAGPNRRVIAMPSVRKYAREKGVDIRLVQGTGKNGRVLKEDIDAFLAGGAKPAPAAAEEKAAPAAAKPATTEGEFPETREKMSGIRRAIAKAMVHSKHTAPHVTLMDEADVTKLVAHRKKFKAIAAEKGIKLTFLPYVVKALVSALREYPVLNTSIDDETEEIIQKHYYNIGIAADTDRGLLVPVIKHADRKPIFALAQEINELAEKARDGKLTPGEMKGASCTITNIGSAGGQWFTPVINHPEVAILGIGRIAEKPIVRDGEIVAAPMLALSLSFDHRMIDGATAQKALNHIKRLLSDPELLLMEA

Soluble on expression in E. coli, not soluble:
MTPNRRSTDSYNMLGASFDFDPDFSLLSNKTHKNKNPKPPVKLLPYRHGSNTTSSDSDSYIFNSGSGSSDAETPAPVAPIFISLEDVLLNGQLIDFAIDPSGVKFLEANYPLDSEDQIRKAVFEKFTESTTLFVGLCHSRNGNFIVQKLVELATPAEQRELLRQMIDGGLLAMCKDKFACRVVQLALQKFDHSNVFQLIQELSTFDLAAMCTDQISIHVIQRVVKQLPVDMWTFFVHFLSSGDSLMAVCQDKYGCRLVQQVIDRLAENPKLPCFKFRIQLLHSLMTCIVRNCYRLSSNEFANYVIQYVIKSSGIMEMYRDTIIDKCLLRNLLSMSQDKYASHVIEGAFLFAPPALLHEMMEEIFSGYVKDVESNRDALDILLFHQYGNYVVQQMISICTAALIGKEERELPPAILLLYSGWYEKMKQRVLQHASRLERFSSGKKIIDSVMRHGVPTAAAVNAQAAPSLMELTAQFDAMFPSFLAR
MGSDKIHHHHHHMTSEKGIIFNIQHFSIHDGPGIRTTVFLKGCPLRCPWCSNPESQKYKPEQMLDAETKLPMIIGEEKTVEDIISEVKKDIDFYEESGGGLTLSGGEIFAQFEFAKAILKCAKEEGLHTAIETTAFAEHEKFTDLIQYVDFIYTDLKHYNTIRHRKVTGVNNNFIIQNIHYAFTHKKTIVLRIPVIPDFNNSLDDAEHFAKLFNDIQVDKVQLLPFHQFGENKYKFLNRKYEMSGYTALHPEDLYDYQSVFLEHGIDCYF
MGSDKIHHHHHHMANQVDIMKDEVAKMTLDFTEPQEILLEISPSLQKSAWQESQVYATPSSRWCAYTNQICLYAFLNWIKTESVSKASVWYSSPGIPAFWEFVNGTAILLEEKRVVLIPSEAIDDSELEVPQEWVDIPSWVADYYLAVQVTPDGEWVRIWGYITHQELKSLAHYDQVDRTYCIDARYLIKDLNAFWITYQFCIKEEMKAAIAPLPELSTAQAENMQQLLSDSSVTFVRLAVPFTTWAALLDNEQWRQCLYEQHQRCLRRAVPTQFSQVQVNLSRWLLQIYDASWQAIETFFEPNTSSLAFNFRSSSGLNAAAIKRAKLIDLGMQIEAQKVILLVALMPEVNQQVSIRVQLHPACNQPYLPANIKLVLLSEQGEILQEVQARVQDMYVQLKLFDGEVGERFSIQVTLDSCQITENFVI
MTVSREVELEGHIIDSGMMQSCFGIIMDLGGSFSVQKFDIGRHKDEESYARMLVEADDEAQLQSIVHELHQHGVNPSDPKDATLVPAPDDQVVPHGFYSTTNHPLEHHHHHH
MGSDKIHHHHHHLAADQDTETQEMLLVMSDLDAQGFDQRRINLTQAELYACIEWLARFHAMFAYEAFPKEDALDDASYDGLWPIGTYWHLATRPDELEVMTDSPLKNATEAIDARLNQARFQTLVHGDAKVANFCFHKEVESLGVNGVAAVDFQYVGAGIGVKDFIYLLGSCLDEAQLVTIYDAACSHYFKSLKQQLSGRWAAEQIEALVAEWSDLLPFAWADFERFLAGWQPQHHKRNGFSQDMTQRVLKALGSVR
LDFGALPPEINSGRMYCGPGSGPMLAAAAAWDGVAVELGLAATGYASVIAELTGAPWVGAASLSMVAAATPYVAWLSQAAARAEQAGMQAAAAAAAYEAAFVMTVPPPVITANRVLVMTLIATNFFGQNSAAIAVAEAQYAEMWAQDAVAMYGYAAASASASRLIPFAAPPKTTNSAGVVAQVAAVAAMPGLLQRLSSAASVSWSNPNDWWLVRLLGSITPTERTTIVRLLGQSYFATGMAQFFASIAQQLTFGPGGTTAGSGGAWYPTPQFAGLGASRAVSASLARANKIGALSVPPSWVKTTALTESPVAHAVSANPTVGSSHGPHGLLRGLPLGSRITRRSGAFAHRYGFRHSVVARPPSAG
MGSDKIHHHHHHMRKVVEVSGVRKSFGELRVLDKVDFYAEEGDFKVIVGENGSGKSTLLKIMIGLLLPDDGEVKVLGVDVKKHWKKLSARIGVVLANERSLYWKLTAWENLDIFGGVYGVPKKVRRERMEELLKRFGLFEYKDKPVEEFSTGMRKKLMICKALIHDPEVLFIDEILNGLDPPSVREMVGFLDERNRRGLTIVMISHVLHVLPENACVVLLRNGRVQMEVRYKDIRSERSEVYEVFENLIRGRNMDEEDTPSGSEGDEDKA
MESTAPNAPTEEAPEPTPFVFEFKNNHIKLIELHVYTDSMEILLIGNDGNRYEVEIQEYPGEACIEQISLNRVLVQKKECTSMYPSAPIAIVTLYSILRQPGVKVDCFYYRILNQYFVRDKNNKTEHAKWDERSASLTKMLKAMMRALMKKLEVEVFKIVYNGKEEEVMCLLPYFEPGYLRRICLFNPLYVSPTVIDNIITTEQWKQAKELNTMTGEPVAFPVESHAHFESLRIRIPELKQIDVILLVLKYLNQKTPKDNEIGVQNVSELFDFMWGSMGIPHENDPETIRYTWKSGTYNLYAEVTKNGVRFTSETRQA
